Biological target: T1, His-tagged p53 protein (UniProt P04637 1-393)
T1 construct: tumor suppressor p53, cloned into pET28b+; also called His-p53; source: bacteria (pET28b+), purified (Ni(II)-Sepharose)
Assay: pull-down; GST or GST fusion proteins on glutathione-Sepharose 4B beads incubated with purified His-tagged proteins in TEN buffer (10 mM Tris-HCl, pH 8.0, 1 mM EDTA, 100 mM NaCl), 4 h, 4 °C; blot with anti-His or anti-GST, Coomassie staining
Conditions: both partners purified

T1 sequence (P04637 whole entry): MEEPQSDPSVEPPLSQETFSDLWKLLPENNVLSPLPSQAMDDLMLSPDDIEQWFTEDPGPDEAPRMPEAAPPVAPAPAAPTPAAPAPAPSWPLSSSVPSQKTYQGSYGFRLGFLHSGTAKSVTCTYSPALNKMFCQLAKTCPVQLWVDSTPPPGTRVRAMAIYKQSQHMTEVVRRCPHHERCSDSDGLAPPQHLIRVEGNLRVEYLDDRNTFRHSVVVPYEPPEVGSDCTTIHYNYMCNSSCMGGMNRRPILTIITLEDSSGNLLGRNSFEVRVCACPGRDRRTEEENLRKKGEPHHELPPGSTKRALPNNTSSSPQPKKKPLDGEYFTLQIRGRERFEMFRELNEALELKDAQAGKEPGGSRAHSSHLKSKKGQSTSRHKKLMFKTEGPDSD

B1: GST-SIRT6 core domain, 35–276 aa (domain or fragment, UniProt Q8N6T7 35-276, looked up)
chain: WELARLVWQSSSVVFHTGAGISTASGIPDFRGPHGVWTMEERGLAPKFDTTFESARPTQTHMALVQLERVGLLRFLVSQNVDGLHVRSGFPRDKLAELHGNMFVEECAKCKTQYVRDTVVGTMGLKATGRLCTVAKARGLRACRGELRDTILDWEDSLPDRDLALADEASRNADLSITLGTSLQIRPSGNLPLATKRRGGRLVIVNLQPTKHDRHADLRIHGYVDEVMTRLMKHLGLEIPAW
notes: source: bacteria, purified (glutathione-Sepharose 4B)
binding result: binds

Reference: PMC6148051, “p53 cooperates with SIRT6 to regulate cardiolipin de novo biosynthesis” (Cell Death & Disease, 2018)
